Data published in patent US20230049732A1 (UNIVERSITY OF LOUISVILLE RESEARCH FOUNDATION, published 2023).
Residue numbers refer to the chain shown, from its start.

T1: KEYA368A369-VLPs of B19V (parvovirus B19 genotype 1 (mutated), UniProt P07299 228-781)
T1 construct: also called construct D
T1 chain: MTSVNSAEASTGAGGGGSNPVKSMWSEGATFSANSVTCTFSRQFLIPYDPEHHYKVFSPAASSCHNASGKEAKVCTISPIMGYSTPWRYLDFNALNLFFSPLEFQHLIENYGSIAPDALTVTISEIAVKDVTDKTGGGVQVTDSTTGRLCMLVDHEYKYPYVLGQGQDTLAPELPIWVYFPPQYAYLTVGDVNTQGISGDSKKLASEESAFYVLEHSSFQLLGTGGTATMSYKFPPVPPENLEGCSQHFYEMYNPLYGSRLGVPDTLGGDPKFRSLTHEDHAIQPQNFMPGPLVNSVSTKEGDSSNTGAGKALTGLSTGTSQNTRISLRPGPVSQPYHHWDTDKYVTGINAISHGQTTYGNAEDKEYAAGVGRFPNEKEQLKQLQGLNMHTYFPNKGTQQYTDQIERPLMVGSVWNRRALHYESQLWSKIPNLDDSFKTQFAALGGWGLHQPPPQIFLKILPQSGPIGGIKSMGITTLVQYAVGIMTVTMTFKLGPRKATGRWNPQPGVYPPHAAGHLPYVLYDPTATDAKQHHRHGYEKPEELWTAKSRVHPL

T2: wtVLPs of parvovirus B19 genotype 1 (VP2 only) (parvovirus B19 genotype 1, UniProt P07299 228-781)
T2 construct: Intact virus-like particles self-assembled from VP2 alone, made in Sf9 cells with baculovirus; also called B19V genotype 1; Prototype Q399QYTDQ404
T2 sequence: T1 chain with A368Q, A369Q

T3: VLPs of B19V genotype 3 (V9 strain VP2) (parvovirus B19 genotype 3, UniProt P07299 228-781)
T3 construct: Intact VLPs of non-mutated VP2
T3 chain: T1 chain with V21T, S32T, D191E, Q220E, T227S, P236A, V294I, S304N, A368Q, A369Q

T4: VLPs of B19V genotype 2 (Lali strain VP2) (parvovirus B19 genotype 2, UniProt P07299 228-781)
T4 construct: Intact VLPs of non-mutated VP2
T4 chain: T1 chain with S32T, Q220E, T227S, S304T, N323S, A368Q, A369Q, M389I

B1: MAb #91 (antibody, V domains shown)
VH: EVQLQQSGPELVKPGASVKISCKASGYSFTDYFMNWVKQSHGKSLEWIGRINPYNGDSFYNQNFRGSVTLTVDKSSGTAHMELLSLTSEDSTVYYCGAYRYDGYAMDYWGQGTSVTVSS
VL: DVVMTQTPLSLPVSLGDQASISCRSSQSLVHSDGNTYLHWYLQKPGQSPKLLIYKVSNRFSGVPDRFSGSGSGTDFTLKISRVEAEDLGVYFCSQSTHVPFTFGSGTKLEIK
notes: Murine hybridoma antibody, supernatant; also called antibody 91
B2: MAb #25 (antibody, V domains shown)
VH: QVQLQQPGAELVRPGASVKLSCKASGYTFTNYWMHWVKQRPEQGLEWIGRIDPYDSETHYNQKFKDKAILTVDTSSNTAYMQLSSLTSEDSAVYYCTSYYYGSNYVWHFDVWGAGTTVTVSS
VL: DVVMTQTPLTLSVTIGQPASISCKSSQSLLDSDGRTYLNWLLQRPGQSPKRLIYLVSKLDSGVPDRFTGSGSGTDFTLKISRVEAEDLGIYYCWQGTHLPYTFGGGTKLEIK
notes: Murine hybridoma antibody, supernatant; also called antibody 25

What was measured:
KEYA368A369-VLPs of B19V = biological target: T1, KEYA368A369-VLPs of B19V; assay: ELISA, intact VLPs coated, hybridoma supernatant
[1] = biological target: T2, wtVLPs of parvovirus B19 genotype 1 …; assay: ELISA, intact VLPs coated, hybridoma supernatant
[2] = biological target: T3, VLPs of B19V genotype 3 (V9 strain VP2); assay: ELISA, VLPs coated
Protocol: (§1) First, 96-well ELISA plates (Immunolon 2; Dynatech) were coated, either 1 h at 37° C. or overnight at 4° C., with 250 to 500 ng per well of B19V VLPs. Intact VLPs were re-suspended in PBS, and the disrupted VLPs were re-suspended in the following solution: 0.2 M NaCO₃, 0.01 M dithiothreitol, pH 7.0, to detect sequential epitopes. The plates were washed three times with PBS, then saturated with bovine albumin via PBS containing 5% bovine serum albumin (5% PBSA) for 1 h at 37° C. After washing three times, plates were then incubated with primary antibodies. Primary antibodies used were rabbit sera (at 1/1000), mouse sera (1/100 dilution) to B19V VLPs, or supernatant of hybridoma cells without dilution for 1 h at 37° C. Thereafter, plates were washed thrice with PBS, then incubated with alkaline phosphatase-conjugated secondary antibodies, with either goat anti-mouse or anti-rabbit IgG (H+L) (Sigma, USA) at a dilution of 1:5000 for 1 h at 37° C. After washing with PBS, bound antibodies were detected with an alkaline phosphatase chromogenic substrate (Phosphatase substrate, Sigma, USA), and absorption was measured at 405 nm. One percent PBSA and sera collected from pre-immune animals were used as negative controls. Human papillomavirus (HPV) and mouse parvovirus (MPV) VLPs were used to check the cross-reactivity of primary antibodies with other types of VLPs. All antibodies were diluted in 1% PBSA.

[3] = biological target: T4, VLPs of B19V genotype 2 (Lali strain …); assay: ELISA, VLPs coated
Protocol: as §1

[4] = biological target: T2, wtVLPs of parvovirus B19 genotype 1 …; assay: ELISA, VLPs coated
Protocol: as §1

Binder | ELISA absorbance (405 nm) (KEYA368A369-VLPs of B19V) | ELISA absorbance (405 nm) [1] | ELISA absorbance (405 nm) [2] | ELISA absorbance (405 nm) [3] | ELISA absorbance (405 nm) [4]
B1 | 2.59 | 3.72 | 3.05 | 3.09 | 3.43
B2 | 2.79 | 2.86 | 2.65 | 2.54 | 2.67
